Patent publication US20240400675A1 (published 2024)
Substitutions are numbered along the chain they refer to. Each block holds one binder with its values, some of them ahead of it.

Legend:
human CLDN17 = molecular target: T1, human CLDN17 (human, UniProt P56750 1-224); experiment: flow cytometry on transfected cells
T1 construct: whole, on cells
T1 sequence (looked up): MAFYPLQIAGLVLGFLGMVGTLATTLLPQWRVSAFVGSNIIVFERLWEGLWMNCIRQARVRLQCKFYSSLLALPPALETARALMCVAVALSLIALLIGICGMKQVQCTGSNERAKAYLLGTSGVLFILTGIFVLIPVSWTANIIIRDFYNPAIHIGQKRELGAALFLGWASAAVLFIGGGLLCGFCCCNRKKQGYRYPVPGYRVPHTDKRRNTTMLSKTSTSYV

human CLDN8 = molecular target: T2, human CLDN8 (human, UniProt P56748 1-225); experiment: flow cytometry on transfected cells
T2 construct: whole, on cells
T2 sequence (looked up): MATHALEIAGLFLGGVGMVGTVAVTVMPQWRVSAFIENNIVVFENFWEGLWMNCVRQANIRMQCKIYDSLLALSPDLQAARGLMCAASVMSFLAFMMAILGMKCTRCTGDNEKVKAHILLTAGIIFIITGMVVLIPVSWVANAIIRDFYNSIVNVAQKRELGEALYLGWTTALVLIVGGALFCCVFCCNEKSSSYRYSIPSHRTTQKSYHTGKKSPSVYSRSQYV

human CLDN5 = molecular target: T3, human CLDN5 (human, UniProt O00501 1-218); experiment: flow cytometry on transfected cells
T3 construct: whole, on cells
T3 sequence (looked up): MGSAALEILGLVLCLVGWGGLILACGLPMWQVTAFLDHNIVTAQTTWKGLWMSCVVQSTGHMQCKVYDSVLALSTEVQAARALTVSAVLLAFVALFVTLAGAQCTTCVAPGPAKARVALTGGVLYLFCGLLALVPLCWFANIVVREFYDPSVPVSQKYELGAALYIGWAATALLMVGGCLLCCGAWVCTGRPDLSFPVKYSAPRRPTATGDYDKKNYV

human CLDN6 = molecular target: T4, human CLDN6 (human, UniProt P56747 1-220); experiment: flow cytometry on transfected HEK293E cells
T4 construct: also called Claudin 6
T4 sequence: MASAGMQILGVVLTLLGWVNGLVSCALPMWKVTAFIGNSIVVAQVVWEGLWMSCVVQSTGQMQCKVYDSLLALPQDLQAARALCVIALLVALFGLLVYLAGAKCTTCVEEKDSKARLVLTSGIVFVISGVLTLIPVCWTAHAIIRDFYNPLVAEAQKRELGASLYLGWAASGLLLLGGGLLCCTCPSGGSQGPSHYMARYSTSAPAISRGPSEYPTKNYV
Method: (§1) The following experiments used to screen CLDN6 binding domains were generally performed as follows. HEK293T or HEK293E cells were respectively stably or transiently transfected to express CLDN6, CLND9, or other targets of interest. 48 hours post transfection, cells were harvested and incubated with dilutions of the indicated test articles for 1 hour at 4° C. […] Binding was then assessed via flow cytometry.

CLDN6 I143V isotype = molecular target: T5, CLDN6 I143V isotype (human, UniProt P56747 1-220); experiment: flow cytometry on transfected HEK293E cells
T5 chain: T4 sequence with I143V
Method: as §1

mouse CLDN6 = molecular target: T6, mouse CLDN6 (mouse, UniProt Q9Z262 1-219); experiment: flow cytometry on transfected HEK293E cells
T6 construct: whole, on cells; also called murine CLDN6
T6 sequence (looked up): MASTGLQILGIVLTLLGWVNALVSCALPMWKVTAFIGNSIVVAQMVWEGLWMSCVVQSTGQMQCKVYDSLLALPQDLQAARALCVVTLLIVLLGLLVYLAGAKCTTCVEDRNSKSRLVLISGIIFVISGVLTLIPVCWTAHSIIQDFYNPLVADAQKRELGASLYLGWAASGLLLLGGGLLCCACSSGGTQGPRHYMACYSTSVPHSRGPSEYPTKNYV
Method: as §1

binding result (human CLDN17): no binding
binding result (human CLDN8): no binding
binding result (human CLDN5): no binding
binding result (human CLDN6): binds
binding result (CLDN6 I143V isotype): binds
binding result (mouse CLDN6): binds
B1: XENP34233 (C6-30_H1L1 x CD3 bsAb in the 2+1 Fab2-scFv-Fc format) (bispecific antibody)
heavy 1: QVQLVQSGAEVKKPGASVKVSCKTSGYTFTEYTMHWVRQAPGQSLEWMGGIDPNNGNTHYNQKFQGRVTITVDKSASTAYMELSSLRSEDTAVYYCARIYYFGRLYFDFWGAGTLVTVSSASTKGPSVFPLAPSSKSTSGGTAALGCLVKDYFPEPVTVSWNSGALTSGVHTFPAVLQSSGLYSLSSVVTVPSSSLGTQTYICNVNHKPSDTKVDKKVEPKSCDKTHTCPPCPAPPVAGPSVFLFPPKPKDTLMISRTPEVTCVVVDVKHEDPEVKFNWYVDGVEVHNAKTKPREEEYNSTYRVVSVLTVLHQDWLNGKEYKCKVSNKALPAPIEKTISKAKGQPREPQVYTLPPSREEMTKNQVSLTCDVSGFYPSDIAVEWESDGQPENNYKTTPPVLDSDGSFFLYSKLTVDKSRWEQGDVFSCSVMHEALHNHYTQKSLSLSPGK
heavy 2: QVQLVQSGAEVKKPGASVKVSCKTSGYTFTEYTMHWVRQAPGQSLEWMGGIDPNNGNTHYNQKFQGRVTITVDKSASTAYMELSSLRSEDTAVYYCARIYYFGRLYFDFWGAGTLVTVSSASTKGPSVFPLAPSSKSTSGGTAALGCLVKDYFPEPVTVSWNSGALTSGVHTFPAVLQSSGLYSLSSVVTVPSSSLGTQTYICNVNHKPSNTKVDKKVEPKSCGGGGSGGGGSQAVVTQEPSLTVSPGGTVTLTCGSSTGAVTTSNYANWVQQKPGKSPRGLIGGTNKRAPGVPARFSGSLLGGKAALTISGAQPEDEADYYCALWYSNHWVFGGGTKLTVLGKPGSGKPGSGKPGSGKPGSEVQLVESGGGLVQPGGSLRLSCAASGFTFSTYAMNWVRQAPGKGLEWVGRIRSKYNNYATYYADSVKGRFTISRDDSKNTLYLQMNSLRAEDTAVYYCVRHGNFGDSYVSWFAYWGQGTLVTVSSGGGGSGGGGSKTHTCPPCPAPPVAGPSVFLFPPKPKDTLMISRTPEVTCVVVDVKHEDPEVKFNWYVDGVEVHNAKTKPREEQYNSTYRVVSVLTVLHQDWLNGKEYKCKVSNKALPAPIEKTISKAKGQPREPQVYTLPPSREQMTKNQVKLTCLVKGFYPSDIAVEWESNGQPENNYKTTPPVLDSDGSFFLYSKLTVDKSRWQQGNVFSCSVMHEALHNHYTQKSLSLSPGK
light: not shown
notes: copies: 1 + 1 + 2

binding result (human CLDN17): no binding
binding result (human CLDN8): no binding
binding result (human CLDN5): no binding
binding result (human CLDN6): binds
binding result (CLDN6 I143V isotype): binds
binding result (mouse CLDN6): binds
B2: XENP34638 (C6-30_H2L1 x CD3 bsAb in the 2+1 Fab2-scFv-Fc format) (bispecific antibody)
heavy 1: EVQLVQSGAEVKKPGESLRISCKTSGYTFTEYTMHWVRQMPGKSLEWMGGIDPNNGNTHYNQKFQGHVTISVDKSISTAYLQWSSLKASDTAMYYCARIYYFGRLYFDFWGAGTLVTVSSASTKGPSVFPLAPSSKSTSGGTAALGCLVKDYFPEPVTVSWNSGALTSGVHTFPAVLQSSGLYSLSSVVTVPSSSLGTQTYICNVNHKPSDTKVDKKVEPKSCDKTHTCPPCPAPPVAGPSVFLFPPKPKDTLMISRTPEVTCVVVDVKHEDPEVKFNWYVDGVEVHNAKTKPREEEYNSTYRVVSVLTVLHQDWLNGKEYKCKVSNKALPAPIEKTISKAKGQPREPQVYTLPPSREEMTKNQVSLTCDVSGFYPSDIAVEWESDGQPENNYKTTPPVLDSDGSFFLYSKLTVDKSRWEQGDVFSCSVMHEALHNHYTQKSLSLSPGK
heavy 2: EVQLVQSGAEVKKPGESLRISCKTSGYTFTEYTMHWVRQMPGKSLEWMGGIDPNNGNTHYNQKFQGHVTISVDKSISTAYLQWSSLKASDTAMYYCARIYYFGRLYFDFWGAGTLVTVSSASTKGPSVFPLAPSSKSTSGGTAALGCLVKDYFPEPVTVSWNSGALTSGVHTFPAVLQSSGLYSLSSVVTVPSSSLGTQTYICNVNHKPSNTKVDKKVEPKSCGGGGSGGGGSQAVVTQEPSLTVSPGGTVTLTCGSSTGAVTTSNYANWVQQKPGKSPRGLIGGTNKRAPGVPARFSGSLLGGKAALTISGAQPEDEADYYCALWYSNHWVFGGGTKLTVLGKPGSGKPGSGKPGSGKPGSEVQLVESGGGLVQPGGSLRLSCAASGFTFSTYAMNWVRQAPGKGLEWVGRIRSKYNNYATYYADSVKGRFTISRDDSKNTLYLQMNSLRAEDTAVYYCVRHGNFGDSYVSWFAYWGQGTLVTVSSGGGGSGGGGSKTHTCPPCPAPPVAGPSVFLFPPKPKDTLMISRTPEVTCVVVDVKHEDPEVKFNWYVDGVEVHNAKTKPREEQYNSTYRVVSVLTVLHQDWLNGKEYKCKVSNKALPAPIEKTISKAKGQPREPQVYTLPPSREQMTKNQVKLTCLVKGFYPSDIAVEWESNGQPENNYKTTPPVLDSDGSFFLYSKLTVDKSRWQQGNVFSCSVMHEALHNHYTQKSLSLSPGK
light: not shown
notes: copies: 1 + 1 + 2
